Assays:
[1] = target: Chp1CD LOOP1B/2B, SUMO tag removed, fluorescently labelled (for MST) (fission yeast (S. pombe)) (UniProt Q10103); assay: MST; 300 ng fluorescent Chp1CD (SUMO removed) in 20 μl, H3K9me3Nucleosomes titrated (0 to 2.4 μM); 10 mM Tris-HCl pH 7.5, 150 mM NaCl, 0.5 mM DTT, 0.05% Tween-20, 10% glycerol; cubic fit, Kd interpolated at 50% bound
[2] = test system: His6-SUMO-Chp1CD LOOP1B/2B (Schizosaccharomyces pombe); assay: MST; settings: H3KC9me3 methyl-lysine analog; X. laevis H2A, H2B, H3, H4; Nucleosome pull-down: 20 mM HEPES pH 7.5, 100 mM KCl, 0.5 mM DTT, 40 mM imidazole, on ice; complex assembly and RNA pull-down: 20 mM HEPES pH 7.5, 75 mM KCl, 0.

Chain of Chp1CD LOOP1B/2B, SUMO tag removed, fluorescently labelled (for MST) (fission yeast (S. pombe)) (Q10103 15-75 N33A/N35A/W49A/Y50A/D51A): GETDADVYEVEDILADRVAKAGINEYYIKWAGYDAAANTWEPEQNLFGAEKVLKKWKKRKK

Row | Substance | fold reduction in Kd against wild-type Chp1CD [1] [fold] | binding signal (fold reduction in Kd vs wt) [2]
1 | H3K9me3 methyl lysine analog (MLA) nucleosome (complex) | > 5 | –
2 | H3K9me3 nucleosome (601) | – | > 5
